Publication PMC5741625, “Methylation-regulated decommissioning of multimeric PP2A complexes” (Nature Communications, 2017)

Tests used:
[1] = target: PP2A scaffold subunit (Homo sapiens) (UniProt P30153); details: cited from earlier work
[2] = target: GST-tagged methylated PP2A core enzyme (GST-Aα bound to carboxyl-methylated Cα) (human, UniProt P30153 8-589; P67775 1-309, carboxyl-methylated C-terminus (L309, the last residue of PP2Ac)); experiment: cell-based or functional assay
[3] = target: T1, PP2A catalytic subunit Cα (1-309) (human, UniProt P67775 1-309); experiment: not stated; Supplementary Fig. 6; TIPRL with PP2Ac or the scaffold subunit alone; details: both partners purified
T1 construct: source: Hi-5 insect cells (baculovirus), purified (Ni-NTA, Source 15Q)
T1 sequence (P67775 whole entry): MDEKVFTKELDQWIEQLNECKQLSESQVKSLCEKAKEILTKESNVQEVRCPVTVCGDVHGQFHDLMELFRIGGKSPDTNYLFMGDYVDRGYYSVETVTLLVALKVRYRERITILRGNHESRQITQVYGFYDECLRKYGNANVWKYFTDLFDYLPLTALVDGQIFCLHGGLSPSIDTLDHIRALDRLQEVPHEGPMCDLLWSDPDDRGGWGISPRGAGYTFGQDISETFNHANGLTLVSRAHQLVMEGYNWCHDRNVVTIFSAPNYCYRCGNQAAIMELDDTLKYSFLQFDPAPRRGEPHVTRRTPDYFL

[4] = target: T2, PP2A scaffold subunit (Aα) alone, as tested against TIPRL in Supplementary Fig. 6b (human, UniProt P30153 8-589); experiment: as above; details: both partners purified
T2 construct: PP2A scaffold subunit Aα, human; Aα (8-589) is named for biochemical experiments; source: E. coli BL21(DE3), purified (glutathione resin, Source 15Q)
T2 sequence (P30153 8-589): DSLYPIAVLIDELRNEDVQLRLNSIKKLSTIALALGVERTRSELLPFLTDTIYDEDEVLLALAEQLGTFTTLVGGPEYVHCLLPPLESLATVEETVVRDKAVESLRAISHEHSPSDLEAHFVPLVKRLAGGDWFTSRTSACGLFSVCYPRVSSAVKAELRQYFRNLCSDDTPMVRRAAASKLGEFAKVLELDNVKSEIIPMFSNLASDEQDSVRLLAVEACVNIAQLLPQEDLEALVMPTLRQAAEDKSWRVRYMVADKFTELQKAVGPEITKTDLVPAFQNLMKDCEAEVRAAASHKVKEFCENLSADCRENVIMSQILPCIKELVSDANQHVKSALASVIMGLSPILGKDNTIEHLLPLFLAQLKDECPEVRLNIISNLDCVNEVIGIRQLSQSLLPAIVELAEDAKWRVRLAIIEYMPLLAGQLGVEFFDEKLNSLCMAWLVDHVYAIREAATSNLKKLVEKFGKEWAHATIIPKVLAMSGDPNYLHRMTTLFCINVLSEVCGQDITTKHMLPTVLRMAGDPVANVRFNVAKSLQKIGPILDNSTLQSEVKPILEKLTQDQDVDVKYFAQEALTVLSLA

[5] = target: T3, GST-tagged unmethylated PP2A core enzyme (GST-Aα bound to Cα) (human, UniProt P30153 8-589; P67775 1-309); experiment: BLI + pull-down; BLI: anti-GST sensors loaded with 150 nM GST-PP2A-AC dimer, TIPRL 0-30 μM, 300 s association and 300 s dissociation, 1:1 model; pull-down of titrated TIPRL by GST-tagged core enzyme on GS4B; details: both partners purified
T3 construct: PP2A scaffold subunit Aα, human, residues 8-589; The methods also speak of full-length Aα in pGEX-2T; also called GST-PP2A core enzyme; GST-PP2A-AC dimer; source: GST-Aα: E. coli BL21(DE3), purified (glutathione resin, Source 15Q); Cα: Hi-5 insect cells (baculovirus), purified (Ni-NTA, Source 15Q)
T3 sequence (P30153 8-589, chain 1 of 2): as the sequence (P30153 8-589) above
T3 sequence (P67775 whole entry, chain 2 of 2, the tested form may be a part): as the sequence (P67775 whole entry) above

[6] = target: T4, PP2A core enzyme (Aα 8-589 and Cα 1-309) as crystallized with TIPRL (human, UniProt P30153 8-589; P67775 1-309, selenomethionine-labeled); experiment: crystal structure; PP2A-TIPRL complex, sitting drop, 18 °C, 0.1 M citric acid pH 5.2, 9% PEG 4000, 0.2 M sodium acetate; 3.8 Å; four copies in the asymmetric unit; details: both partners purified
T4 construct: PP2A scaffold subunit Aα, human, residues 8-589; also called PP2A AC dimer; source: Aα: E. coli BL21(DE3); Cα: Hi-5 insect cells; assembled on glutathione resin, released by on-column thrombin cleavage, purified by ion exchange
T4 sequence (P30153 8-589, chain 1 of 2): as the sequence (P30153 8-589) above
T4 sequence (P67775 whole entry, chain 2 of 2, the tested form may be a part): as the sequence (P67775 whole entry) above

[7] = target: T5, PP2A scaffold subunit Aα (8-589), as in the crystal of the PP2A-TIPRL complex (human, UniProt P30153 8-589, selenomethionine-labeled); experiment: as above; details: both partners purified
T5 construct: PP2A scaffold subunit Aα, human, residues 8-589; also called PP2A-A; A subunit; source: E. coli BL21(DE3), purified; GST removed by thrombin
T5 sequence (P30153 8-589, one chain of several): as the sequence (P30153 8-589) above

[8] = target: T1, PP2A catalytic subunit Cα (1-309); experiment: as above; details: both partners purified

PP2A scaffold subunit (Homo sapiens), sequence (P30153 2-589): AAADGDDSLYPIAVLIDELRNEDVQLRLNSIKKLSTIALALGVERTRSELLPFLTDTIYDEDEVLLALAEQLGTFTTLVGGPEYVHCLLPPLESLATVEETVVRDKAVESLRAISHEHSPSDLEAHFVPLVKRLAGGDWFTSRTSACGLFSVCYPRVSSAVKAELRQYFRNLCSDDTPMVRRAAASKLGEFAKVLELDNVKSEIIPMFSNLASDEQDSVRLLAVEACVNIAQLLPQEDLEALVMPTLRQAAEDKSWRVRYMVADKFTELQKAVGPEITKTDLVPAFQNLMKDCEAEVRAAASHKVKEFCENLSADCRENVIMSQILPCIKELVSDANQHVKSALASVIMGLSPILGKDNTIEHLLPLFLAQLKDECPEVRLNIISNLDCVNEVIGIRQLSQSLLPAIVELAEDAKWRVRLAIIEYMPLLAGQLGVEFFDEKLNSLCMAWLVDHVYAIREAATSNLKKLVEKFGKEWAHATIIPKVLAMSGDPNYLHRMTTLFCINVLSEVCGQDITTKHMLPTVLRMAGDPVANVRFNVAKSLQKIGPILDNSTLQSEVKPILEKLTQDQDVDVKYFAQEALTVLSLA
GST-tagged methylated PP2A core enzyme (GST-Aα bound to carboxyl-methylated Cα), sequence (P30153 8-589, chain 1 of 2): as the sequence (P30153 8-589) above
GST-tagged methylated PP2A core enzyme (GST-Aα bound to carboxyl-methylated Cα), sequence (P67775 whole entry, chain 2 of 2): as the sequence (P67775 whole entry) above

## PP2Ac (from UniProt P67775)
[1]
  Kd: 5 nM

B1: TIPRL (TOR signaling pathway regulator), full length, wild type (natural protein, UniProt Q8BH58 1-271, looked up)
chain: MMIHGFQSSHQDFSFGPWKLTASKTHIMKSADVEKLADELHMPSLPEMMFGDNVLRIQHGSGFGIEFNATDALRCVNNYQGMLKVACAEEWQESRTEGEHSKEVIKPYDWTYTTDYKGTLLGESLKLKVVPTTDHIDTEKLKAREQIKFFEEVLLFEDELHDHGVSSLSVKIRVMPSSFFLLLRFFLRIDGVLIRMNDTRLYHEADKTYMLREYTSRESKIANLMHVPPSLFTEPNEISQYLPIKEAVCEKLVFPERIDPNPVDSQSTPSE
notes: TIPRL, full length, for biochemical experiments; Cloned into pQLinkH; His6-tag removed by TEV protease; also called WT TIPRL; source: E. coli BL21 (DE3), purified (Ni-NTA, Source 15Q, Superdex 200)
[2]
  fold increase of the IC50 of TIPRL for phosphatase activity upon carboxylmethylation of the PP2A core enzyme: ~30 fold
[3]
  Kd: ~600 nM
[4]
  Kd: ~10000 nM
[5]
  Kd: ~310 nM

B2: mouse TIPRL (12-259) (domain or fragment, UniProt Q8BH58 12-259, looked up)
chain: DFSFGPWKLTASKTHIMKSADVEKLADELHMPSLPEMMFGDNVLRIQHGSGFGIEFNATDALRCVNNYQGMLKVACAEEWQESRTEGEHSKEVIKPYDWTYTTDYKGTLLGESLKLKVVPTTDHIDTEKLKAREQIKFFEEVLLFEDELHDHGVSSLSVKIRVMPSSFFLLLRFFLRIDGVLIRMNDTRLYHEADKTYMLREYTSRESKIANLMHVPPSLFTEPNEISQYLPIKEAVCEKLVFPERID
notes: TIPRL, mouse, residues 12-259; also called native TIPRL (12-259); source: E. coli BL21 (DE3), purified (Ni-NTA, Source 15Q, Superdex 200)
[6]
  binding result: binds
[7]
  binding result: binds
[8]
  binding result: binds
